Measurements taken from PMC9569855 (International Journal of Molecular Sciences, 2022).

Target: SARS-CoV-2 wild type RBD (319-541aa) (SARS-CoV-2, UniProt P0DTC2)
Experiment: SPR
Conditions: both partners purified

B1: Bamlanivimab (antibody, V domains shown)
VH: QVQLVQSGAEVKKPGSSVKVSCKASGGTFSNYAISWVRQAPGQGLEWMGRIIPILGIANYAQKFQGRVTITADKSTSTAYMELSSLRSEDTAVYYCARGYYEARHYYYYYAMDVWGQGTAVTVSS
VL: not shown
Kd: 1.4 nM
